How the values were obtained:
[1] = target: T1, EfCodY (Enterococcus faecalis) (UniProt Q834K5); experiment: BLI; conditions: BLI: 20 mM Tris-HCl pH 8, 150 mM NaCl, 2 mM MgCl2, 0.1% NP-40, 25 C, 2 mM GTP and/or 10 mM Ile/Leu/Val as stated
T1 sequence: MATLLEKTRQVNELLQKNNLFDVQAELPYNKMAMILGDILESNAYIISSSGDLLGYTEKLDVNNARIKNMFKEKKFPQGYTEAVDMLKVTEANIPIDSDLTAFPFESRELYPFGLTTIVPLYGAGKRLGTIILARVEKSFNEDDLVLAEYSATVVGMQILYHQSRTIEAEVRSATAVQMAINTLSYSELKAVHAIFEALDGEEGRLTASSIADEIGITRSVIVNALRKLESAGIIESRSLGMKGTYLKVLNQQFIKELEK

[2] = target: Staphylococcus aureus CodY (SaCodY), full length (Staphylococcus aureus) (UniProt Q2FHI3); experiment: SEC-MALS; Superdex 75 10/300, 0.4 ml/min; 200 ul of 35 uM CodY, ligand-free, 20 mM Tris-HCl pH 8, 200 mM NaCl

## 26-nt overlapping sites
[1]
  Kd: 710 nM

## single 15-nt consensus site
[1]; 10 mM Leu (implied), values printed as pair, assigned by order
  Kd: 706 nM

## Staphylococcus aureus CodY (SaCodY), full length (from UniProt Q2FHI3 1-257) (natural protein)
[2]
  stoichiometry N: 2

Source: paper PMC10415144, “Structural insights into CodY activation and DNA recognition” (Nucleic Acids Research, 2023)
